According to patent publication US20150203556A1 (UAB RESEARCH FOUNDATION, published 2015):
One block for each binder: values may come before it.

Assays:
[1] = target: T1, IL-20/IL-20R2 binary complex (human, UniProt Q9NYY1 25-176; Q6UXL0 30-230); assay: SPR co-injection: IL-20 fixed at 250 nM with IL-22R1 (1000-7.81 nM) over amine coupled IL-20R2; 250 nM IL-20 sensorgram subtracted; 1:1 fit, apparent value
T1 construct: also called 20 + 20R2; IL-20+soluble IL-20R2
T1 chain 1: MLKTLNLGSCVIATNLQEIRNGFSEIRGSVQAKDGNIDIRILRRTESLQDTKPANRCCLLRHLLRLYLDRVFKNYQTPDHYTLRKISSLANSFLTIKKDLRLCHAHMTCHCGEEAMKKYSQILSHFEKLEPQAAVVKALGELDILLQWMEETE
T1 chain 2: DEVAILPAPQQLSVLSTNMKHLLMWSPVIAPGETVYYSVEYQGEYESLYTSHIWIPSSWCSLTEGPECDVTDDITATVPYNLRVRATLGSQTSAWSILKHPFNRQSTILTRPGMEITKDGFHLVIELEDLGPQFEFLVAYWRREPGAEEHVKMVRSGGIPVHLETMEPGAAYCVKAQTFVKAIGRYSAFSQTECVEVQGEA
Description: (§1) FIGS. 12A-12H are graphs showing IL19/IL-20 receptor interactions and complex stability. SPR sensorgrams, data fits (black lines), KD values, and residual errors obtained for complexes described at the top of each panel. Panels are labeled as injected soluble proteins, followed by a semicolon (:), then the protein coupled to chip surface, IL-20R1 or IL-20R2. FIGS. 12A and 12B show injection of IL-19 and IL-20 (max conc.=10 μM, 2 fold diluted to 0.625 μM) over IL-20R1. FIGS. 12C and 12D show injection of IL-19 (max conc.=500 nM, 2-fold diluted to 3.91 nM) or IL-20 (max conc.=2000 nM, 2-fold diluted to 62.5 nM) over IL-20R2. FIGS. 12E-12H show IL-19 and IL-20 (fixed at 250 nM) mixed with different concentrations of IL-20R1, or IL-22R1, (max conc.=1000 nM, 2-fold diluted to 7.81 nM) and injected over IL-20R2. To estimate R1 chain affinity/complex stability, the contribution of the ligand was removed by using the 250 nM IL-19, or IL-20, sensorgram as the blank subtraction. All sensorgrams were fit to 1:1 binding models.
(§2) Surface Plasmon Resonance Experiments SPR experiments were performed on Biacore T-100, and T-200, (GE healthcare, Waukesha, Wis.) systems. […] Soluble proteins were injected for 75-90 seconds (30 uL/min) over the surfaces, and the dissociation phase was followed for 75-120 seconds depending on the stability of the complex being analyzed. […]

[2] = target: T1, IL-20/IL-20R2 binary complex; assay: SPR co-injection: IL-20 fixed at 250 nM with IL-22R1 (1000-7.81 nM) over amine coupled IL-20R2; 250 nM IL-20 sensorgram subtracted; 1:1 fit, apparent KD (KDapp)
Description: as §1, §2

IL-19 = target: T2, IL-19 (human, UniProt Q9UHD0 25-177); assay: SPR (Biacore), IL-19 (500-3.91 nM) over IL-20R2-fc captured by anti-FC Ab, 1:1 fit
T2 construct: also called Interleukin-19; IL-19a
T2 sequence: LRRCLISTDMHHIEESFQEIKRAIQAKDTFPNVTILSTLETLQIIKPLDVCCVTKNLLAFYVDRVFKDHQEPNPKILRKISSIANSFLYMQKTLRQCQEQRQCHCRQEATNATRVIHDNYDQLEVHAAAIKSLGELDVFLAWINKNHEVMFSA
Description: as §1, with “SPR” for “FIGS. 12A-12H are graphs showing IL19/IL-20 receptor interactions and complex stability. SPR”
(§3) Surface Plasmon Resonance Experiments SPR experiments were performed on Biacore T-100, and T-200, (GE healthcare, Waukesha, Wis.) systems. Soluble IL-20R2 was amine coupled (100-130 RU) to CM5 research grade biacore chips in 10 mM sodium acetate, pH 5.0. IL-20R1-FC and IL-20R2-FC were coupled (60-120 RU) to CM5 chips using an anti-FC Ab coupling kit using the manufacturer's instructions (GE healthcare, Waukesha, Wis.). All binding experiments were performed in running buffer consisting of 10 mM Hepes, pH 7.4, 150 mM NaCl, 0.04% P20, and 0.1 mg/mL bovine serum albumin (Sigma, St. Louis, Mo.). No regeneration was performed between sample injections on IL-20R2 amine-coupled surfaces. […] Soluble proteins were injected for 75-90 seconds (30 uL/min) over the surfaces, and the dissociation phase was followed for 75-120 seconds depending on the stability of the complex being analyzed. […]
IL-19/IL-20R2 and IL-20/IL-20R2 interactions were determined by SPR methods with IL-20R2 attached to a biacore chip by amine coupling, or as an IL-20R2-FC fusion protein.

IL-20 [3] = target: T3, IL-20 (human, UniProt Q9NYY1 25-176); assay: SPR, IL-20 over IL-20R2 (FIG. 12D)
T3 construct: The crystal model holds residues 24-176; also called Interleukin-20; IL-20b
T3 sequence: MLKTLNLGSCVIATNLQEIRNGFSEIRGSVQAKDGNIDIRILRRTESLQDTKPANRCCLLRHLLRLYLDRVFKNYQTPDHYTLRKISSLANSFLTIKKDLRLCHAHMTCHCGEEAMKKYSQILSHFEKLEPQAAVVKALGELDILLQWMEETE
Description: as §1, §2

IL-20 [4] = target: T3, IL-20; assay: SPR (Biacore), IL-20 (2000-62.5 nM) over IL-20R2-fc captured by anti-FC Ab, 1:1 fit
IL-20 [5] = target: T3, IL-20; assay: SPR, site KD as listed in Table 5
[6] = target: T4, IL-20 bound on IL-20R2-fc (IL-20/IL-20R2-fc binary complex) (human, UniProt Q9NYY1 25-176); assay: SPR co-injection: IL-20 fixed at 250 nM with IL-20R1 (1000-7.81 nM) over IL-20R2-fc; 250 nM IL-20 sensorgram subtracted; 1:1 fit, apparent value
Description: as §1, §2

[7] = target: T5, IL-19 bound on IL-20R2-fc (IL-19/IL-20R2-fc binary complex) (human, UniProt Q9UHD0 25-177); assay: SPR co-injection: IL-19 fixed at 250 nM with IL-20R1 (1000-7.81 nM) over IL-20R2-fc; 250 nM IL-19 sensorgram subtracted; 1:1 fit, apparent KD (KDapp)
Description: (§4) To estimate R1 chain affinity/complex stability, the contribution of the ligand was removed by using the 250 nM IL-19, or IL-20, sensorgram as the blank subtraction. All sensorgrams were fit to 1:1 binding models.
(§5) To estimate the stability of IL-20 (IL-20/IL-20R1/IL-20R2 and IL-20/IL-22R1/IL-20R2) and IL-19 (IL-19/IL-20R1/IL-20R2) ternary complexes (FIG. 1), IL-19, or IL-20, was co-injected with soluble IL-20R1 over a biacore chip coupled with IL-20R2. […] The same results, although with different KDapp values, were obtained by evaluating ternary complex stability by injecting soluble IL-20R2 and IL19, or IL-20, over biacore chip surfaces of IL-20R1 or IL-22R1 (FIG. 13).
as §3, with “Wis.).” for “Wis.). All binding experiments were performed in running buffer consisting of 10 mM Hepes, pH 7.4, 150 mM NaCl, 0.04% P20, and 0.1 mg/mL bovine serum albumin (Sigma, St. Louis, Mo.). No regeneration was performed between sample injections on IL-20R2 amine-coupled surfaces.”

[8] = target: T5, IL-19 bound on IL-20R2-fc …; assay: SPR co-injection: IL-19 fixed at 250 nM with IL-20R1 (1000-7.81 nM) over IL-20R2-fc; 250 nM IL-19 sensorgram subtracted; 1:1 fit, apparent value
Description: as §1, §2

[9] = target: T4, IL-20 bound on IL-20R2-fc …; assay: SPR co-injection: IL-20 fixed at 250 nM with IL-20R1 (1000-7.81 nM) over IL-20R2-fc; 250 nM IL-20 sensorgram subtracted; 1:1 fit, apparent KD (KDapp)
Description: as §4, §5
as §3, with “Wis.).” for “Wis.). All binding experiments were performed in running buffer consisting of 10 mM Hepes, pH 7.4, 150 mM NaCl, 0.04% P20, and 0.1 mg/mL bovine serum albumin (Sigma, St. Louis, Mo.). No regeneration was performed between sample injections on IL-20R2 amine-coupled surfaces.”

koff [1]: 0.0893 s⁻¹
kon [1]: 65500 M⁻¹ s⁻¹
Kd [2]: 1360 nM
B1: IL-22R1 (sIL-22R1DDQ) (receptor)
chain: HAPEDPSDLLQHVKFQSSNFENILTWDSGPEGTPDTVYSIEYKTYGERDWVAKKGCQRITRKSCDLTVETGDLQELYYARVTAVSAGGRSATKMTDRFSSLQHTTLKPPDVTCISKVRSIQMIVHPTPTPIRAGDGHRLTLEDIFHDLFYHLELQVNRTYQMHLGGKQREYEFFGLTPDTEFLGTIMICVPTWAKESAPYMCRVKTLPDRT

Kd (IL-19): 105 nM
koff (IL-19): 0.0242 s⁻¹
kon (IL-19): 230000 M⁻¹ s⁻¹
Kd (IL-20 [3]): 697 nM
Kd (IL-20 [4]): 686 nM
koff (IL-20 [4]): 0.219 s⁻¹
kon (IL-20 [4]): 319000 M⁻¹ s⁻¹
Kd (IL-20 [5]): 687 nM
B2: IL-20R2-FC (Fc fusion)
chain: DEVAILPAPQQLSVLSTNMKHLLMWSPVIAPGETVYYSVEYQGEYESLYTSHIWIPSSWCSLTEGPECDVTDDITATVPYNLRVRATLGSQTSAWSILKHPFNRQSTILTRPGMEITKDGFHLVIELEDLGPQFEFLVAYWRREPGAEEHVKMVRSGGIPVHLETMEPGAAYCVKAQTFVKAIGRYSAFSQTECVEVQGEAGSGGGGPSVFIFPPKIKDVLMISLSPIVTCVVVDVSEDDPDVQISWFVNNVEVHTAQTQTHREDYNSTLRVVSALPIQHQDWMSGKEFKCKVNNKDLPAPIERTISKPKGSVRAPQVYVLPPPEEEMTKKQVTLTCMVTDFMPEDIYVEWTNNGKTELNYKNTEPVLDSDGSYFMTSKLRVEKKNWVERNSYSCSVVHEGLHNHHTTKSFGGCGTPASGGLNDIFEAQKIEWHE
notes: also called IL-20-FC

koff [6]: 0.0171 s⁻¹
kon [6]: 53700 M⁻¹ s⁻¹
Kd [7]: 3120 nM
koff [8]: 0.139 s⁻¹
kon [8]: 44500 M⁻¹ s⁻¹
Kd [9]: 319 nM
B3: soluble IL-20R1 (receptor)
chain: VPCVSGGLPKPANITFLSINMKNVLQWTPPEGLQGVKVTYTVQYFIYGQKKWLNKSECRNINRTYCDLSAETSDYEHQYYAKVKAIWGTKCSKWAESGRFYPFLETQIGPPEVALTTDEKSISVVLTAPEKWKRNPEDLPVSMQQIYSNLKYNVSVLNTKSNRTWSQCVTNHTLVLTWLEPNTLYCVHVESFVPGPPRRAQPSEKQCARTLKDQSS
